Test results taken from doi:10.1101/2025.08.11.669711, “Site-Specific Nanobody Inhibitors of the Proteasomal Deubiquitinase UCH37” (bioRxiv, 2025).
Substitutions are numbered along the chain they refer to. Names may count otherwise.

Experiments:
UCH37•RPN13^DEUBAD [1] = molecular target: T1, UCH37•RPN13^DEUBAD (Homo sapiens, strain); assay: SEC-MALS; nanobodies incubated with UCH37•RPN13^DEUBAD on ice 30 min; TSKgel G3000SWXL; 50 mM sodium phosphate pH 6.5, 150 mM sodium chloride, 10% isopropanol; room temperature; details: both partners purified
T1 construct: from His8-MBP-TEV-UCH37 in pVP16 (DNASU); RPN13 (ADRM1) DEUBAD domain, aa 253-407, cloned from His10-RPN13 in pET19b; source: E. coli BL21(DE3) pLysS, co-purified (Ni-NTA, TEV, GST resin, 3C, Superdex 200); not shown: His8, N-terminal, cleaved; MBP, N-terminal, cleaved; GST, N-terminal, cleaved
T1 chain 1: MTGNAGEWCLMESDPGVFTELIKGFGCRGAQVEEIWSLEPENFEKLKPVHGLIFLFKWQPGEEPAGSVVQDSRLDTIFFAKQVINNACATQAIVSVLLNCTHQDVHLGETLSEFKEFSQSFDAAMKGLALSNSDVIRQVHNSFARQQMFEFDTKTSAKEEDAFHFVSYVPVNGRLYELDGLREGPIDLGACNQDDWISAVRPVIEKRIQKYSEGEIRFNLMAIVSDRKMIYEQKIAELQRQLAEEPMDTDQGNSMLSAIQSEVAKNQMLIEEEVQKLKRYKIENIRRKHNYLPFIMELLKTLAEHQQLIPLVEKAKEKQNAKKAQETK
T1 chain 2: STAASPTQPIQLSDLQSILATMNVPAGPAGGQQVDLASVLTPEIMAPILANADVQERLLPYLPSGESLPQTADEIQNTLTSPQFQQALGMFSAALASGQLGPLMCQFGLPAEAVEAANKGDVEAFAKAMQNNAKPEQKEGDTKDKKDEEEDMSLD

UCH37•RPN13 = molecular target: T2, UCH37•RPN13 (Homo sapiens, strain); assay: MST; nanobody labelled with fluorescein isothiocyanate at 20 nM (Nb-ncS1) or 50 nM (Nb-cS1); UCH37•RPN13 titrated 4 μM to 0.12 nM or 46 μM to 2.8 nM; 50 mM Tris pH 7.4, 150 mM NaCl, 10 mM MgCl2, 0.05% tween-20; room temperature; 1:1 Kd fit; duplicates; details: both partners purified
T2 construct: from His8-MBP-TEV-UCH37 in pVP16 (DNASU); RPN13 (ADRM1), His10-RPN13 in pET19b; source: E. coli BL21(DE3) pLysS, co-purified (amylose, TEV, Ni-NTA, Superdex 200); not shown: His8, N-terminal, cleaved; MBP, N-terminal, cleaved
T2 chain 1: T1 chain 1
T2 chain 2: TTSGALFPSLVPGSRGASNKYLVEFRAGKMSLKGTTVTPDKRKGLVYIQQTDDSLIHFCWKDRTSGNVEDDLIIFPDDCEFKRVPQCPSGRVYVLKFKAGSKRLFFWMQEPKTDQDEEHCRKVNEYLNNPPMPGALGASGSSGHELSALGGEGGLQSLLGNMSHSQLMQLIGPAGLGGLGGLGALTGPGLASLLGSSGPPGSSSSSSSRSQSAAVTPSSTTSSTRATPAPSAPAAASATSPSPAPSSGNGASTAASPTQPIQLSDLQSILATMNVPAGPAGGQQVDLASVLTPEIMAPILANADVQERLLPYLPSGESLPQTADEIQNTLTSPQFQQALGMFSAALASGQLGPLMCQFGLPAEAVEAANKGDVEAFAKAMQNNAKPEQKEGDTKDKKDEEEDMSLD

UCH37 (endogenous) [2] = molecular target: T3, UCH37 (endogenous) (Homo sapiens (HEK293FT, endogenous)); assay: co-IP; WT HEK293FT transfected with HA-Flag-tagged nanobodies; anti-FLAG resin 3 hours 4 °C; lysis in 50 mM HEPES pH 7.5, 50 mM NaCl, 5 mM MgCl2, 2 mM ATP, 1 mM DTT, 10% glycerol; blots of UCH37 and proteasome subunits; details: partners not purified
T3 construct: endogenous UCH37 (UCHL5) of HEK293FT cells; also called UCHL5
T3 chain: T1 chain 1

UCH37 (endogenous) [3] = molecular target: T3, UCH37 (endogenous); assay: affinity purification with mass spectrometry; WT HEK293FT transfected with HaloTag nanobodies; immunoprecipitation, on-bead trypsin digestion, TMT labelling; compared with Halo-Nb-ctrl; details: partners not purified
[4] = molecular target: translation elongation factor EEF2 (Homo sapiens, UniProt P13639); assay: affinity purification with mass spectrometry; as a15, but UCH37KO HEK293FT cells; details: partners not purified
HSP70 chaperone HSPA1B = molecular target: T4, HSP70 chaperone HSPA1B (Homo sapiens, UniProt P0DMV9); assay: as above; details: partners not purified
T4 construct: endogenous HSPA1B; source: endogenous, UCH37KO HEK293FT lysate

UCH37 [5] = molecular target: T5, UCH37 (Homo sapiens, strain); assay: not stated; recombinant purified Nb-v1 with free UCH37 (Supplementary Figure 2b); details: both partners purified
T5 construct: from His8-MBP-TEV-UCH37 in pVP16 (DNASU); The purification of free UCH37 is not described; in the complexes with RPN13 the His-MBP tag was removed with TEV protease; also called UCHL5; free UCH37; source: E. coli, purified (His-MBP-TEV-UCH37 construct; individually purified for the crystal)
T5 chain: T1 chain 1

Ub-UCH37•RPN13^DEUBAD = molecular target: T6, Ub-UCH37•RPN13^DEUBAD (Homo sapiens, strain, active site cysteine covalently linked to Ub propargylamine (Ub-PA) | C-terminal propargylamine after residue 75, linked to the active site cysteine of UCH37; biotin on the Avi tag in the …); assay: native MS; 150 mM ammonium acetate pH 6.8; UCH37•RPN13^DEUBAD variants premixed with Nb-ncS1 in equimolar ratio, 1 hour on ice; final 10 uM; nanospray, Synapt G2; details: both partners purified
T6 construct: from His8-MBP-TEV-UCH37 in pVP16 (DNASU); RPN13 (ADRM1) DEUBAD domain, aa 253-407, cloned from His10-RPN13 in pET19b; ubiquitin residues 1-75 (Ub_(1-75)-propargylamine, made from Avi-Ub_(1-75)-intein); In the pull-down it was offered as a mixture with unconjugated UCH37•RPN13^DEUBAD; also called Ub conjugated UCH37•RPN13^DEUBAD; UCH37•RPN13^DEUBAD -Ub-PA; source: UCH37•RPN13^DEUBAD (E. coli, …)

UCH37•RPN13^DEUBAD [6] = molecular target: T1, UCH37•RPN13^DEUBAD; assay: as above; details: both partners purified
UCH37 [7] = molecular target: T5, UCH37; assay: SPR; BIACORE T200, His-Nb immobilised on NTA chip (about 30 RU); purified UCH37 injected, single cycle kinetics; 50 mM HEPES pH 7.5, 50 mM NaCl, 50 μM EDTA, 0.005% TWEEN 20; 25 °C; 1:1 model; details: both partners purified

T4 sequence (P0DMV9 whole entry): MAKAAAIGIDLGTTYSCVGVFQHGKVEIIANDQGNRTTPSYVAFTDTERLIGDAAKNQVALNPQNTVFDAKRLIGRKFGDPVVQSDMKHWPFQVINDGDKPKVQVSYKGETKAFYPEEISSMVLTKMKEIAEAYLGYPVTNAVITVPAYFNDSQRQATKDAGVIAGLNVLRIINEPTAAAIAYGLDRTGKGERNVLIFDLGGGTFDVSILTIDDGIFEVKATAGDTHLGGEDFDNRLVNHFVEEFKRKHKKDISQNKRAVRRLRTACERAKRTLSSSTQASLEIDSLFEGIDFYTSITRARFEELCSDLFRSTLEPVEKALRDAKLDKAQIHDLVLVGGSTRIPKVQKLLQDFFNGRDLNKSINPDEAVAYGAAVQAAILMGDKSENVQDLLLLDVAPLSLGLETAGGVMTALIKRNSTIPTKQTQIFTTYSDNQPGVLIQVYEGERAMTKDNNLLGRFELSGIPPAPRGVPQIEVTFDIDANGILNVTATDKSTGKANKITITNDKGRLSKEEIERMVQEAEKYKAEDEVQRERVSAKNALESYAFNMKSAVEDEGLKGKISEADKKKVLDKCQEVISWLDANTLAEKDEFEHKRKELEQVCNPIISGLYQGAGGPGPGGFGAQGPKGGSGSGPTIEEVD

B1: Nb-cS1 (His-tagged) (VHH)
VHH: QVQLQESGGGLVQAGGSLRLSCAASGYISRPRTMGWYRQAPGKEREFVAIISNGAITNYADSVKGRFTISRDNAKNTVYLQMNSLKPEDTAVYYCAAGRNIWHAYWGQGTQVTVSS
notes: synthetic nanobody from a yeast display library: clone Nb-v2 matured with L47F, T50I, K99R; Cloned into pET28b; Labelled with fluorescein isothiocyanate for MST; also called 6xHis-tagged Nb-cS1; cNb; source: E. coli BL21 (DE3), purified (Ni-NTA, Superdex 75)
B1 was tested, and the “stoichiometry N” value (UCH37•RPN13^DEUBAD [1]) was 1 and the Kd (UCH37•RPN13) was 200 nM.

B2: HA-Flag-tagged Nb-cS1 (VHH)
VHH: B1 VHH
notes: as the VHH of m15 (Nb-cS1); source: HEK293FT, transiently transfected (1436 pcDNA3 Flag HA vector), in lysate or in fixed cells
B2: binds (UCH37 (endogenous) [2]).

B3: Halo-Nb-cS1 (expressed in cells) (VHH)
VHH: B1 VHH
notes: as the VHH of m15 (Nb-cS1); The authors suspect that this fusion is misfolded in human cells; also called Halo-tagged Nb-cS1; source: HEK293FT (WT or UCH37KO), transiently transfected, in lysate; not shown: HaloTag, C-terminal, kept
B3: binds (UCH37 (endogenous) [3]); binds [4]; binds (HSP70 chaperone HSPA1B).

B4: Nb-v1 (recombinant) (VHH)
VHH: QVQLQESGGGLVQAGGSLRLSCAASGYIFRSYRMGWYRQAPGKERELVAAIGLGGNTYYADSVKGRFTISRDNAKNTVYLQMNSLKPEDTAVYYCAALHGKPPAFSPFAYWGQGTQVTVSS
notes: most enriched clone of the first yeast display selection, parent of Nb-ncS1 (Nb-ncS1 = Nb-v1 with Q1R, L80Q, H99Y, A109P); His-tagged nanobodies were made in E. coli BL21 (DE3) by the general method; source: recombinant production and purification
B4 was tested, and the Kd (UCH37 [5]) was 0.3 nM.

B5: Nb-ncS1 (His-tagged) (VHH)
VHH: B4 VHH with Q1R, L80Q, H99Y, A109P
notes: as the VHH of Nb-v1 with the four stated changes; Cloned into pET28b; Labelled with fluorescein isothiocyanate for MST; also called 6xHis-tagged Nb-ncS1; His-Nb; source: E. coli BL21 (DE3), purified (Ni-NTA, Superdex 75)
B5 was tested, and the “stoichiometry N” value (Ub-UCH37•RPN13^DEUBAD) was 1, the “stoichiometry N” value (UCH37•RPN13^DEUBAD [6]) was 1 and the Kd (UCH37 [7]) was 0.125 nM.
